Results taken from the supplement of paper PMC7125110.
± gives the standard error. This sample holds only a part of the variants without activity.

B1: glmS ribozyme (parent)
chain: AUAAAAGCGCCAGAACUACAGAAAUGUAGUUGACGAGGAGGAGGUUUAUCGAAUUUUCGGCGGAUGCCUCCAAA

Variants of: B1
Test: self-cleavage kobs at 640 uM GlcN6P; higher = faster cleavage; RNA array
Details: with glucosamine-6-phosphate
Outline: (§1)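 Barcoded ribozyme variants were transcribed in situ on sequenced MiSeq chips by E. coli RNA polymerase. At 37 °C, a hybridised Cy3 probe tracked them while glucosamine-6-phosphate (40 μM to 10 mM) in HEPES/KCl/Mg(OAc)2 buffer flowed in and tiles were imaged over ~14 h. Per-tile medians of signals normalised to baseline and to non-cleaving reference variants were fit to one- or two-exponential decays, giving kobs. kcat and KM came from weighted Michaelis–Menten fits across concentrations.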

Variant	self-cleavage kobs at 640 uM GlcN6P
G7U U47G A53U	< 1e-05 s⁻¹
G9U C19A G62U G63U	< 1e-05 s⁻¹
G7U G40A G59U	< 1e-05 s⁻¹
G7C C11U G59U C61U	< 1e-05 s⁻¹
C10U A14U G32A A42C	< 1e-05 s⁻¹
G7U G32C G38C A42U C50U	< 1e-05 s⁻¹
C8A C11U A36G	< 1e-05 s⁻¹
C8G C11U A15U G29C G41U	< 1e-05 s⁻¹
C8U G29A U31A G37U A52G C71G	0.0078 ± 0.0033 s⁻¹
G9U C61A C70G	4.55e-05 ± 2.1e-05 s⁻¹
G9C A64U	< 1e-05 s⁻¹
C10U A33G U54A	< 1e-05 s⁻¹
A6U U54C C68G U69G	0.00033 ± 9.7e-05 s⁻¹
G7U C50U U65A U69C C71U	6.46e-05 ± 2.1e-05 s⁻¹
C8G G13U U55C C58U	< 1e-05 s⁻¹
G7C C34A A42C C71U	< 1e-05 s⁻¹
C10U C50G C68U C71A	9.29e-05 ± 2.6e-05 s⁻¹
C8G G43A	< 1e-05 s⁻¹
C10A A64U U69G	0.000351 ± 0.00014 s⁻¹
G9U G44C C58A	< 1e-05 s⁻¹
C8A G32A A36C G41A A42U	< 1e-05 s⁻¹
C8G G13A U56C	< 1e-05 s⁻¹
G9U G32A G43C	< 1e-05 s⁻¹
C10U G35U G51A	< 1e-05 s⁻¹

Variant	self-cleavage kobs at 640 uM GlcN6P
G7A C8A G9A G62A	< 1e-05 s⁻¹
C8U A12U G51U	< 1e-05 s⁻¹
C8U G29A G37A A39U C61U A64C	< 1e-05 s⁻¹
C10U A12C G40A	< 1e-05 s⁻¹
G7U G9A G38U	< 1e-05 s⁻¹
G7U U30G G63U	< 1e-05 s⁻¹
C8A C11A G37U G41C A53C G63C	< 1e-05 s⁻¹
C10U G35C G62C	< 1e-05 s⁻¹
A6U G40C C61U G62C	< 1e-05 s⁻¹
C8U G32U C68A	< 1e-05 s⁻¹
G7A A39G A64C C71U	< 1e-05 s⁻¹
G7C A12U G41U	< 1e-05 s⁻¹
C10A G62U C70G	9.92e-05 ± 3.7e-05 s⁻¹
G7C A42U	< 1e-05 s⁻¹
C8U C50G G51U U56C	< 1e-05 s⁻¹
G7U A36G G38U	< 1e-05 s⁻¹
G9U U45G A52G	< 1e-05 s⁻¹
G7C C10A C71A	< 1e-05 s⁻¹
G9A A48U C50A	< 1e-05 s⁻¹
C8U A14G A39G A53U U54G G63A	< 1e-05 s⁻¹
C10U G13C A15U C16U C50G	0.000145 ± 6.3e-05 s⁻¹
C10U G32A U49A	< 1e-05 s⁻¹
G9U G51U C71U	< 1e-05 s⁻¹
G9C A53U C70A	< 1e-05 s⁻¹

Variant	self-cleavage kobs at 640 uM GlcN6P
C10G G13C A39G	< 1e-05 s⁻¹
C8G C11G A14C A39G C50G	8.19e-05 ± 2.8e-05 s⁻¹
G9U U30C U65G C70U	< 1e-05 s⁻¹
G9U G32C A42G U45G	< 1e-05 s⁻¹
C10A C67G C70A	0.000293 ± 9.2e-05 s⁻¹
C8A U30C G51U	< 1e-05 s⁻¹
G9C A12C G13U G44U C67A	< 1e-05 s⁻¹
G7C C16U G32C G43A C50U	< 1e-05 s⁻¹
C10A C61G C67G C71G	0.000346 ± 8.8e-05 s⁻¹
G9U C10G G13C A48C C50U	< 1e-05 s⁻¹
C8A G32A G66U	< 1e-05 s⁻¹
C8G G32C A33U C67U	< 1e-05 s⁻¹
G7U C67U C71G	7.36e-05 ± 2.2e-05 s⁻¹
G9U A14C A53U G62A C67G	< 1e-05 s⁻¹
C8G G32U U47G C67G C68G	0.000105 ± 3.3e-05 s⁻¹
C8G C10U A48U	< 1e-05 s⁻¹
C10A A33G U45C G66A C70U	< 1e-05 s⁻¹
C10G G41U U55A C58G G63U	< 1e-05 s⁻¹
C8A G13U G43A G44U G63U	< 1e-05 s⁻¹
C8U A14C G32A	< 1e-05 s⁻¹
C10G C11A U31C G35C C70G	0.00013 ± 6.3e-05 s⁻¹
G7A C16G U30G G44U A52G	< 1e-05 s⁻¹
C8U A42G A48C	< 1e-05 s⁻¹
G7C U46C	< 1e-05 s⁻¹

Variants of: B1
Test: self-cleavage kobs at 2500 uM GlcN6P; higher = faster cleavage; RNA array
Details: with glucosamine-6-phosphate
Outline: as §1

Variant	self-cleavage kobs at 2500 uM GlcN6P
G7U U47G A53U	< 1e-05 s⁻¹
C8A C11U A36G	< 1e-05 s⁻¹
C8G G13U U55C C58U	< 1e-05 s⁻¹
C10U C50G C68U C71A	0.000111 ± 2.9e-05 s⁻¹
C8G G43A	< 1e-05 s⁻¹
C8A G32A A36C G41A A42U	< 1e-05 s⁻¹
C8U A12U G51U	< 1e-05 s⁻¹
C10U A12C G40A	< 1e-05 s⁻¹
C8A C11A G37U G41C A53C G63C	< 1e-05 s⁻¹
C10U G35C G62C	< 1e-05 s⁻¹
G7A A39G A64C C71U	< 1e-05 s⁻¹
G7C A12U G41U	< 1e-05 s⁻¹
C10A G62U C70G	0.000143 ± 4.8e-05 s⁻¹
C8U A14G A39G A53U U54G G63A	< 1e-05 s⁻¹
C10U G13C A15U C16U C50G	0.000146 ± 5.6e-05 s⁻¹
C10G G13C A39G	< 1e-05 s⁻¹
G9U G32C A42G U45G	< 1e-05 s⁻¹
C10A C61G C67G C71G	0.000167 ± 8.1e-05 s⁻¹
G9U C10G G13C A48C C50U	< 1e-05 s⁻¹
C8G G32C A33U C67U	< 1e-05 s⁻¹
G9U A14C A53U G62A C67G	< 1e-05 s⁻¹
C8G G32U U47G C67G C68G	4.39e-05 ± 2.1e-05 s⁻¹
C8G C10U A48U	< 1e-05 s⁻¹
C10A A33G U45C G66A C70U	< 1e-05 s⁻¹
C8U A14C G32A	< 1e-05 s⁻¹
G7A C16G U30G G44U A52G	< 1e-05 s⁻¹
C8U A42G A48C	< 1e-05 s⁻¹
G7C U46C	< 1e-05 s⁻¹

Variants of: B1
Test: self-cleavage kobs at 10000 uM GlcN6P; higher = faster cleavage; RNA array
Details: with glucosamine-6-phosphate
Outline: as §1

Variant	self-cleavage kobs at 10000 uM GlcN6P
C8G C11U A15U G29C G41U	< 1e-05 s⁻¹
G7A C8A G9A G62A	< 1e-05 s⁻¹
G7C U46C	< 1e-05 s⁻¹
